Results reported in US20230030674A1 (SOTIO BIOTECH A S, published 2023).

Assays:
huCLDN18.2 [1] = molecular target: T1, huCLDN18.2 (human, UniProt P56856-2 1-261); experiment: flow cytometry titration on HEK293T cells overexpressing CLDN18.2
T1 construct: whole, on cells; Full-length huCLDN18.2 stably overexpressed in HEK293T cells (pPB-Puro-huCldn18.2); also called human CLDN18.2
Procedure: (§1) A PE-coupled secondary anti-human IgG antibody was added to the cells for additional 30 min at 4° C. after washes with the FACS buffer, followed by further washes with FC buffer. The cells were then resuspended in 100 μl FC buffer and measured with a FACSCalibur™ cell analyzer (BD Biosciences, USA).

huCLDN18.2 [2] = molecular target: T1, huCLDN18.2; experiment: flow cytometry titration on PA-TU-8988S-High cells (endogenous CLDN18.2)
Procedure: as §1

| Binder | EC50 (huCLDN18.2 [1]) | Max MFI (huCLDN18.2 [1]) | EC50 (huCLDN18.2 [2]) | Max MFI (huCLDN18.2 [2]) |
| --- | --- | --- | --- | --- |
| hGBA-1 (antibody, human IgG1, kappa, V domains shown, Humanized IgG1; X and chain(s) not specified, so tags not built in) VH: EVQLVQSGAEVKKPGESLKISCKGSGYSFTSYWIGWVRQMPGKGLEWMGNIYPGASDTRYAPSFQGQVTISADKSISTAYLQWSSLKASDTAMYYCARLWRGNSFDYWGQGTLVTVSS VL: not shown | 0.259 µg/mL | 3030 MFI | 0.444 µg/mL | 2530 MFI |
| hGBA-5 (antibody, human IgG1, kappa, V domains shown, Humanized IgG1; X and chain(s) not specified, so tags not built in) VH: EVQLVQSGAEVKKPGESLKISCKGSGYSFTSYWIGWVRQMPGKGLEWMGIIYPGAAYTRYAPSFQGQVTISADKSISTAYLQWSSLKASDTAMYYCARLWRGNSFDYWGQGTLVTVSS VL: not shown | 0.305 µg/mL | 3320 MFI | 0.159 µg/mL | 2560 MFI |
| hGBA-9 (antibody, human IgG1, kappa, V domains shown, Humanized IgG1; X and chain(s) not specified, so tags not built in) VH: EVQLVQSGAEVKKPGESLKISCKGSGYTFTSYWIGWVRQMPGKGLEWMGIIYPSAAYTRYAPSFQGQVTISADKSISTAYLQWSSLKASDTAMYYCTRMWRGNSFDYWGQGTLVTVSS VL: not shown | 0.241 µg/mL | 3120 MFI | 0.286 µg/mL | 2440 MFI |
| hGBA-4 (antibody, human IgG1, kappa, V domains shown, Humanized IgG1; X and chain(s) not specified, so tags not built in) VH: EVQLVQSGAEVKKPGESLKISCKGSGYSFTSYWIGWVRQMPGKGLEWMGIIYPGDAYTRYSPSFQGQVTISADKSISTAYLQWSSLKASDTAMYYCTRLWRGNSFDAWGQGTLVTVSS VL: DIVMTQSPDSLAVSLGERATINCKSSQSLLNSGNQKNYLTWYQQKPGQPPKLLIYWASTRESGVPDRFSGSGSGTDFTLTISSLQAEDVAVYYCQNDYSYPLTFGQGTKVEIKR | 0.357 µg/mL | 2790 MFI | 0.412 µg/mL | 2010 MFI |
| hGBA-7 (antibody, human IgG1, kappa, V domains shown, Humanized IgG1; X and chain(s) not specified, so tags not built in) VH: EVQLVQSGAEVKKPGESLKISCKGSGYSFTSYWIGWVRQMPGKGLEWMGNIYPGEAYTRYSPSFQGQVTISADKSISTAYLQWSSLKASDTAMYYCTRLWRGNSFDYWGQGTLVTVSS VL: not shown | 0.42 µg/mL | 3250 MFI | 0.323 µg/mL | 2320 MFI |
| IMAB362 (antibody, human IgG1, kappa, V domains shown, X and which chain(s) are not specified, so the tags are not built in; also called Claudiximab; Zolbetuximab) VH: QVQLQQPGAELVRPGASVKLSCKASGYTFTSYWINWVKQRPGQGLEWIGNIYPSDSYTNYNQKFKDKATLTVDKSSSTAYMQLSSPTSEDSAVYYCTRSWRGNSFDYWGQGTTLTVSS VL: DIVMTQSPSSLTVTAGEKVTMSCKSSQSLLNSGNQKNYLTWYQQKPGQPPKLLIYWASTRESGVPDRFTGSGSGTDFTLTISSVQAEDLAVYYCQNDYSYPFTFGSGTKLEIKR | 0.388 µg/mL | 1970 MFI | 0.508 µg/mL | 1050 MFI |

Further lines, results first:

| EC50 (huCLDN18.2 [1]) | Max MFI (huCLDN18.2 [1]) | EC50 (huCLDN18.2 [2]) | Max MFI (huCLDN18.2 [2]) | Binder |
| --- | --- | --- | --- | --- |
| 0.257 µg/mL | 2890 MFI | 0.191 µg/mL | 2240 MFI | hGBA-6 (antibody, human IgG1, kappa, V domains shown, Humanized IgG1; X and chain(s) not specified, so tags not built in) VH: EVQLVQSGAEVKKPGESLKISCKGSGYTFTSYWIGWVRQMPGKGLEWMGNIYPGASYTRYSPSFQGQVTISADKSISTAYLQWSSLKASDTAMYYCTRQWRGNSFDYWGQGTLVTVSS VL: not shown |
| 0.187 µg/mL | 2700 MFI | 0.303 µg/mL | 2370 MFI | hGBA-8 (antibody, human IgG1, kappa, V domains shown, Humanized IgG1; X and chain(s) not specified, so tags not built in) VH: EVQLVQSGAEVKKPGESLKISCKGSGYSFTSYWIGWVRQMPGKGLEWMGNIYPSESYTNYAPSFQGQVTISADKSISTAYLQWSSLKASDTAMYYCTRLWRGNSFDYWGQGTLVTVSS VL: not shown |
| 0.273 µg/mL | 2750 MFI | 0.352 µg/mL | 2160 MFI | hGBA-3 (antibody, human IgG1, kappa, V domains shown, Humanized IgG1; X and chain(s) not specified, so tags not built in) VH: EVQLVQSGAEVKKPGESLKISCKGSGYSFTSYWIGWVRQMPGKGLEWMGIIYPGASDTNYAPSFQGQVTISADKSISTAYLQWSSLKASDTAMYYCARIWRGNSFDYWGQGTLVTVSS VL: DIVMTQSPDSLAVSLGERATINCKSSQSLLNSGNQKNYLAWYQQKPGQPPKLLIYWASTRESGVPDRFSGSGSGTDFTLTISSLQAEDVAVYYCQNDYSYPLTFGQGTKVEIKR |
| 0.249 µg/mL | 2970 MFI | 0.584 µg/mL | 2400 MFI | hGBA-2 (antibody, human IgG1, kappa, V domains shown, Humanized IgG1; X and chain(s) not specified, so tags not built in) VH: EVQLVQSGAEVKKPGESLKISCKGSGYSFTSYWIGWVRQMPGKGLEWMGNIYPGDADTRYAPSFQGQVTISADKSISTAYLQWSSLKASDTAMYYCARMWRGNSFDYWGQGTLVTVSS VL: not shown |
